Laboratory results from patent US20220177886, “[…] AGAINST CLOSTRIDIUM […], COMPOSITIONS COMPRISING […] AGAINST CLOSTRIDIUM […] AND METHODS OF USING THE SAME” (Biovector, Inc., published 2022).

Experiments:
CdeC = CdeC (Clostridium difficile); test: pulldown; conditions: tags: His-tagged (Ni-NTA)
Protocol: (§1) The binding assay was performed by incubating fluorescently labeled aptamers (FAM) with the protein, and then spinning the tubes down in a microcentrifuge to remove unbound. The pellet was resuspended in selection buffer and spun down again. Bound aptamers were eluted by adding 6 M urea, and spinning again, retaining the supernatant. The aptamers were cleaned up with PCR cleanup columns and the fluorescence was read on a Tecan Sapphire II fluorometer. Excitation was at 497 nm, and emission was at 515 nm. The amount of fluorescence measured in the eluant was divided by the total amount of fluorescence of all fractions.
(§2) D1 CdeC: The original aptamer sequence was SEQ ID NO: 6, which binds to the CdeC protein from C. difficile. […] Two aptamers, D1.1 (SEQ ID NO: 38) and D1.2 (SEQ ID NO: 39), were designed to stabilize the structure observed in the analysis of the original sequence (FIG. 11). The CdeC protein self-aggregates in aqueous solutions making surface plasmon resonance analysis difficult. The protein forms large aggregates that are insoluble. The protein aggregates were combined as suspensions with the aptamers in solutions, allowed to incubate at room temperature for 15 min, and then spun down in a microcentrifuge to remove unbound aptamer. The complexes were washed with the appropriate selection buffer (50 mM Tris pH 7.6, 2.5 mM MgCl₂, 2.5 mM CaCl₂, 85 mM KOAc, 0.01% Tween 20, 0.01% BSA) once and the spin process was repeated. Finally, the bound aptamer was eluted from the protein structures with the addition of 6M urea. The protein aggregates were spun again, and this time the supernatant containing the eluted aptamers was retained. The aptamers were synthesized with a FAM label on the 5′ end for this analysis.
(§3) The CdeM protein is similar to the CdeC protein in that it forms aggregated balls when purified. An amount of protein equivalent to 1 E8 particles with 1 μM of each of the Em2, Em2.1 and Em2.2 aptamers in a total volume of 50 μL in the CdeM buffer was used. The mixture was allowed to incubate for 15 min at room temperature, then centrifuged. The supernatant was removed, and the pellet resuspended in CdeM buffer. This was centrifuged again and the wash process repeated once more.

CotA-His6 [1] = target: T1, CotA-His6 (Clostridium difficile, UniProt Q186G8 SEQ:1-305); test: SPR; 7.82E-08; protein immobilized; conditions: tags: His6; optimized potential G-quartet
T1 sequence: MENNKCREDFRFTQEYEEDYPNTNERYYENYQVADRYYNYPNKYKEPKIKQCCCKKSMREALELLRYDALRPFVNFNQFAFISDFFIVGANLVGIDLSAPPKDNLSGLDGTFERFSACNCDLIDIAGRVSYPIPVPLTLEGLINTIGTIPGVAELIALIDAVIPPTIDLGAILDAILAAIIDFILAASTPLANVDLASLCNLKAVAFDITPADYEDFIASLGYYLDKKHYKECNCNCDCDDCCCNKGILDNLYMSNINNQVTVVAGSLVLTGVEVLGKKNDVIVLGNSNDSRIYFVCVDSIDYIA
Protocol: as §1, with “For CotA C1, the protein was immobilized on a hydrogel chip with EDC-mediated conjugation between primary amines on the protein (side chains on residues) and carboxylic acid groups on the surface of the chip. A protein of similar size was immobilized in the same manner as a negative control. […] For CdeC D1, the protein was received as aggregated, insoluble balls of protein. The binding” for “The binding”

[2] = target: CotEC chitinase (rCotEC, AB45, aa381-712 of CotE) (Clostridium difficile); test: SPR; conditions: tags: His-tagged (Ni-NTA)
Protocol: (§4) For CotE D2, CotE H2 and CotEC chitinase, aptamers were spotted on a gold surface at a concentration of 5 μM in PBS at a volume of approximately 10 nL in triplicate. Negative aptamers of the same length as the positive aptamers were spotted in the same manner, also in triplicate. Protein was then injected over the chip at a volume of 200 μL, with a flow rate of 50 μL/min in a Horiba (OpenPlex) surface plasmon resonance imaging (SPRi) instrument. Resonance due to binding was obtained by subtracting total resonance on the negative sequences from total resonance on the positive sequences. Disassociation values were computed with the following equation: dx/dt˜−kd*x, wherein dx/dt is the derivative of resonance values as a function of time and x is the resonance value for any given time point. Association values were computed with the following equation: dx/dt˜ka*c*Rmax−(ka*c+kd)*x, where x is the resonance due to binding at specific time points, c is the concentration of injectant, and Rmax is the maximum resonance observed.
(§5) Surface plasmon resonance imaging (SPRi) analysis of binding was performed with the various aptamers immobilized on a surface while the protein was flowed over at various concentrations.

HIV-1 p24 capsid protein = HIV-1 p24 capsid protein (Human immunodeficiency virus 1, UniProt P04591 P04591:133-363); test: negative control protein; only aspecific fluorescence recovery, graphene oxide assay; conditions: tags: E. coli derived; RayBiotech 212-10004; label: 5'-FAM
Protocol: Once the quenched signal was stabilized, a fixed concentration of the target protein was added to the aptamer-GO mix (5 nM aptamer+0.5 ng/μL GO), and the recovery in quenched signal was recorded over time.
As negative control, a non-target protein at the same concentration (HIV cap protein P24) was added to the aptamer-GO mix.
Using 0.005% PEG in the buffer system, and 5 nM Fam-H2.1.2 with 0.5 ng/μL GO, the recovery of quenched signal was recorded after adding 50 nM of target protein (CotE) and 50 nM negative control protein (P24).

[3] = target: CotE (rCotE LS25, N281-F712) (Clostridium difficile); test: SPR; conditions: tags: His-tagged (Ni-NTA)
Protocol: as §4, §5

CdeM = CdeM (Clostridium difficile); test: pulldown; conditions: tags: His-tagged (Ni-NTA)
Protocol: as §1, §2, §3

CotA-His6 [4] = target: T1, CotA-His6; test: SPR; 1.84E-08; protein immobilized; conditions: tags: His6
Protocol: as §1, with “For CotA C1, the protein was immobilized on a hydrogel chip with EDC-mediated conjugation between primary amines on the protein (side chains on residues) and carboxylic acid groups on the surface of the chip. A protein of similar size was immobilized in the same manner as a negative control. […] For CdeC D1, the protein was received as aggregated, insoluble balls of protein. The binding” for “The binding”

CotA-His6 [5] = target: T1, CotA-His6; test: SPR; 5.21E-08; protein immobilized; conditions: tags: His6
Protocol: as §1, with “For CotA C1, the protein was immobilized on a hydrogel chip with EDC-mediated conjugation between primary amines on the protein (side chains on residues) and carboxylic acid groups on the surface of the chip. A protein of similar size was immobilized in the same manner as a negative control. […] For CdeC D1, the protein was received as aggregated, insoluble balls of protein. The binding” for “The binding”

B1: CdeC D1.2 (ssDNA)
DNA: ACTACTCAATGCCGTGGACTGGTCGGGTTTGGAATCGGCAGATGAATCAGTAGTAAA
binding result (CdeC): binds

ACCCGTGGGACTGGGTCGGGTCGGG (ssDNA) [CotA C1.3]
Kd (CotA-His6 [1]): 78.2 nM

B2: CotEC Chitinase D11.1 (ssDNA)
DNA: AACTGCCTGGTAAATCGATGACCGCTGCCTCGCCTGAGTAATCATCGTACTATCCACAGGTC
Kd [2]: 295 nM

CTTGACCTTTGGAATGGGTGGGAGGGAGGGTATCCACAGGTCAACC (ssDNA) [FAM-CotE H2.1.2]
binding result (HIV-1 p24 capsid protein): no binding

CTTGACCTTTGGAATGGGTGGGAGGGAGGGTATCCACAGGTCAACC (ssDNA) [CotE H2.1.2]
Kd [3]: 7.52 nM

B3: CdeC D1 (ssDNA)
DNA: CCAGTGTAGACTACTCAATGCCGTGGACTGGTCGGGTTTGGATTCGGCAGATGAATCAGTAGTACTATCCACAGGTCAACC
binding result (CdeC): binds

B4: CdeM Em2.1 (ssDNA)
DNA: CTCAATGCCTTCCATTCACCTACCGAGCTAAGCGTTCGACTTAGGTCTGTACT
binding result (CdeM): binds

B5: CotE D2.2 (ssDNA)
DNA: ACTACTCAATGCTCGACATTTCCGCCCCGACGGCCCTCCTAGTGATGGGGAGAGTAGA
Kd [3]: 207 nM

B6: CotE D2.1 (ssDNA)
DNA: ACTACTCAATGCTCGACATTTCCGCCCCGACGGCCCTCCTAGTGAGGGGAGAGTAGA
Kd [3]: 34.1 nM

AATGGGTGGGAGGGATGGGTACTA (ssDNA) [CotE H2.2]
Kd [3]: > 250 nM

B7: CdeM E2/Em2 (ssDNA)
DNA: CCAGTGTAGACTACTCAATGCCTTCCATTCACCTACCGAGCTAAGCGTTCGACTTAGGTCTGTACTATCCACAGGTCAACC
binding result (CdeM): binds

CTTGACCTTTGGAATGGGTGGGAGGGATGGGTACTATCCACAGGTCAACC (ssDNA) [CotE H2.1]
Kd [3]: 17.5 nM

ACTCAAGGCCGTGGACTGGTCGGGTTTGGATTCGGCAGATGAATCACT (ssDNA) [CotA C1.1]
Kd (CotA-His6 [4]): 18.4 nM

B8: CotE H2.1.1 (ssDNA)
DNA: CTTGACCTTTGGAATGGGTAGGGAGGGAGGGATACTATCCACAGGTCAACC
Kd [3]: > 250 nM

ACTCAAGGCCGTGGACTGGTCGGGTTTGGAT (ssDNA) [CotA C1.2]
Kd (CotA-His6 [5]): 52.1 nM
